Test results published in the supplement of paper PMC10567573.

B1: FAM189A2 (parent)
chain: CALNALTTTVCLVAAALRYLQIFA

Variants of: B1
Assay: protein stability index of a GFP-peptide fusion (GPS, HEK-293T) (PSI 1-6); higher = more stable
Settings: c terminus: a fixed tail appended
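Note: lentivirally expressed fusions sorted by FACS into six bins by GFP to DsRed ratio, PSI derived from sequencing read proportions per bin multiplied by bin number.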

Question: Which protein stability index does the source give for CALNALTTTVCLKAAALRYLQIFA [V13K] here?
Answer: 2.78

Question: Which protein stability index does the source give for CALNALTTTVCLWAAALRYLQIFA [V13W] here?
Answer: 3.96

Question: With CALNALTTTVCLLAAALRYLQIFA [V13L] as the variant, how does the protein stability index read?
Answer: 2.8

Question: For CALNALTTTVCLNAAALRYLQIFA [V13N], which protein stability index is on record?
Answer: 2.88

Question: Which protein stability index does the source give for CALNALTTTVCLRAAALRYLQIFA [V13R] here?
Answer: 3.73

Question: For CALNALTTTVCLSAAALRYLQIFA [V13S], which protein stability index is on record?
Answer: 2.06

Question: With CALNALTTTVCLMAAALRYLQIFA [V13M] as the variant, how does the protein stability index read?
Answer: 2.25

Question: With CALNALTTTVCLPAAALRYLQIFA [V13P] as the variant, how does the protein stability index read?
Answer: 2.88

Question: With CALNALTTTVCLTAAALRYLQIFA [V13T] as the variant, how does the protein stability index read?
Answer: 3

Question: Which protein stability index does the source give for CALNALTTTVCLQAAALRYLQIFA [V13Q] here?
Answer: 2.8

Question: With CALNALTTTVCLGAAALRYLQIFA [V13G] as the variant, how does the protein stability index read?
Answer: 3.15

Question: With CALNALTTTVCLEAAALRYLQIFA [V13E] as the variant, how does the protein stability index read?
Answer: 3.61

Question: With CALNALTTTVCLIAAALRYLQIFA [V13I] as the variant, how does the protein stability index read?
Answer: 2.9

Question: With CALNALTTTVCLAAAALRYLQIFA [V13A] as the variant, how does the protein stability index read?
Answer: 2.99

Question: For CALNALTTTVCLDAAALRYLQIFA [V13D], which protein stability index is on record?
Answer: 2.59

Question: For CALNALTTTVCLYAAALRYLQIFA [V13Y], which protein stability index is on record?
Answer: 2.68

Question: For CALNALTTTVCLFAAALRYLQIFA [V13F], which protein stability index is on record?
Answer: 3.5

Question: With CALNALTTEVCLVAAALRYLQIFA [T9E] as the variant, how does the protein stability index read?
Answer: 2.63

Question: With CALNALTTAVCLVAAALRYLQIFA [T9A] as the variant, how does the protein stability index read?
Answer: 3.62

Question: For CALNALTTFVCLVAAALRYLQIFA [T9F], which protein stability index is on record?
Answer: 2.07

Question: For CALNALTTDVCLVAAALRYLQIFA [T9D], which protein stability index is on record?
Answer: 2.65

Question: With CALNALTTSVCLVAAALRYLQIFA [T9S] as the variant, how does the protein stability index read?
Answer: 3.11

Question: With CALNALTTVVCLVAAALRYLQIFA [T9V] as the variant, how does the protein stability index read?
Answer: 3.39

Question: Which protein stability index does the source give for CALNALTTPVCLVAAALRYLQIFA [T9P] here?
Answer: 3.2

Question: With CALNALTTNVCLVAAALRYLQIFA [T9N] as the variant, how does the protein stability index read?
Answer: 2.79

Question: Which protein stability index does the source give for CALNALTTLVCLVAAALRYLQIFA [T9L] here?
Answer: 2.69

Question: With CALNALTTHVCLVAAALRYLQIFA [T9H] as the variant, how does the protein stability index read?
Answer: 2.19

Question: With CALNALTTIVCLVAAALRYLQIFA [T9I] as the variant, how does the protein stability index read?
Answer: 2.68

Question: Which protein stability index does the source give for CALNALTTYVCLVAAALRYLQIFA [T9Y] here?
Answer: 2.69

Question: For CALNALTTCVCLVAAALRYLQIFA [T9C], which protein stability index is on record?
Answer: 2.34

Question: For CALNALTTGVCLVAAALRYLQIFA [T9G], which protein stability index is on record?
Answer: 4.16

Question: For CALNALTTQVCLVAAALRYLQIFA [T9Q], which protein stability index is on record?
Answer: 3.59

Question: For CALNALTKTVCLVAAALRYLQIFA [T8K], which protein stability index is on record?
Answer: 1.93

Question: For CALNALTRTVCLVAAALRYLQIFA [T8R], which protein stability index is on record?
Answer: 2.69

Question: For CALNALTLTVCLVAAALRYLQIFA [T8L], which protein stability index is on record?
Answer: 1.99

Question: Which protein stability index does the source give for CALNALTPTVCLVAAALRYLQIFA [T8P] here?
Answer: 2.92

Question: With CALNALTNTVCLVAAALRYLQIFA [T8N] as the variant, how does the protein stability index read?
Answer: 3.77

Question: With CALNALTFTVCLVAAALRYLQIFA [T8F] as the variant, how does the protein stability index read?
Answer: 3.49

Question: For CALNALTGTVCLVAAALRYLQIFA [T8G], which protein stability index is on record?
Answer: 1.91

Question: Which protein stability index does the source give for CALNALTMTVCLVAAALRYLQIFA [T8M] here?
Answer: 2.93

Question: Which protein stability index does the source give for CALNALTWTVCLVAAALRYLQIFA [T8W] here?
Answer: 3.44

Question: Which protein stability index does the source give for CALNALTCTVCLVAAALRYLQIFA [T8C] here?
Answer: 2.95

Question: Which protein stability index does the source give for CALNALTITVCLVAAALRYLQIFA [T8I] here?
Answer: 3.39

Question: With CALNALTSTVCLVAAALRYLQIFA [T8S] as the variant, how does the protein stability index read?
Answer: 2.63

Question: For CALNALTATVCLVAAALRYLQIFA [T8A], which protein stability index is on record?
Answer: 3.34

Question: Which protein stability index does the source give for CALNALTETVCLVAAALRYLQIFA [T8E] here?
Answer: 4.29

Question: With CALNALTHTVCLVAAALRYLQIFA [T8H] as the variant, how does the protein stability index read?
Answer: 2.94

Question: Which protein stability index does the source give for CALNALSTTVCLVAAALRYLQIFA [T7S] here?
Answer: 2.85

Question: Which protein stability index does the source give for CALNALRTTVCLVAAALRYLQIFA [T7R] here?
Answer: 2.34

Question: Which protein stability index does the source give for CALNALNTTVCLVAAALRYLQIFA [T7N] here?
Answer: 3.42

Question: For CALNALITTVCLVAAALRYLQIFA [T7I], which protein stability index is on record?
Answer: 3.6

Question: Which protein stability index does the source give for CALNALCTTVCLVAAALRYLQIFA [T7C] here?
Answer: 3.6

Question: For CALNALATTVCLVAAALRYLQIFA [T7A], which protein stability index is on record?
Answer: 3.07

Question: With CALNALFTTVCLVAAALRYLQIFA [T7F] as the variant, how does the protein stability index read?
Answer: 2.06

Question: For CALNALKTTVCLVAAALRYLQIFA [T7K], which protein stability index is on record?
Answer: 1.87

Question: For CALNALMTTVCLVAAALRYLQIFA [T7M], which protein stability index is on record?
Answer: 4.03

Question: With CALNALPTTVCLVAAALRYLQIFA [T7P] as the variant, how does the protein stability index read?
Answer: 3.27

Question: For CALNALYTTVCLVAAALRYLQIFA [T7Y], which protein stability index is on record?
Answer: 3.46

Question: With CALNALGTTVCLVAAALRYLQIFA [T7G] as the variant, how does the protein stability index read?
Answer: 2.78

Question: Which protein stability index does the source give for CALNALDTTVCLVAAALRYLQIFA [T7D] here?
Answer: 2.18

Question: Which protein stability index does the source give for CALNALQTTVCLVAAALRYLQIFA [T7Q] here?
Answer: 3.37

Question: With CALNALWTTVCLVAAALRYLQIFA [T7W] as the variant, how does the protein stability index read?
Answer: 2.89

Question: Which protein stability index does the source give for CALNAGTTTVCLVAAALRYLQIFA [L6G] here?
Answer: 4.13

Question: Which protein stability index does the source give for CALNAFTTTVCLVAAALRYLQIFA [L6F] here?
Answer: 1.13

Question: With CALNAWTTTVCLVAAALRYLQIFA [L6W] as the variant, how does the protein stability index read?
Answer: 3.2

Question: For CALNAPTTTVCLVAAALRYLQIFA [L6P], which protein stability index is on record?
Answer: 3.83

Question: For CALNAMTTTVCLVAAALRYLQIFA [L6M], which protein stability index is on record?
Answer: 4.19

Question: Which protein stability index does the source give for CALNAITTTVCLVAAALRYLQIFA [L6I] here?
Answer: 1.47

Question: Which protein stability index does the source give for CALNAKTTTVCLVAAALRYLQIFA [L6K] here?
Answer: 1.77

Question: For CALNATTTTVCLVAAALRYLQIFA [L6T], which protein stability index is on record?
Answer: 2.87

Question: With CALNANTTTVCLVAAALRYLQIFA [L6N] as the variant, how does the protein stability index read?
Answer: 3.48

Question: Which protein stability index does the source give for CALNAYTTTVCLVAAALRYLQIFA [L6Y] here?
Answer: 3.27

Question: For CALNACTTTVCLVAAALRYLQIFA [L6C], which protein stability index is on record?
Answer: 2.11

Question: With CALNARTTTVCLVAAALRYLQIFA [L6R] as the variant, how does the protein stability index read?
Answer: 2.87

Question: For CALNAQTTTVCLVAAALRYLQIFA [L6Q], which protein stability index is on record?
Answer: 2.83

Question: With CALNADTTTVCLVAAALRYLQIFA [L6D] as the variant, how does the protein stability index read?
Answer: 3.49

Question: Which protein stability index does the source give for CALNAATTTVCLVAAALRYLQIFA [L6A] here?
Answer: 2.83

Question: Which protein stability index does the source give for CALNALTTTVRLVAAALRYLQIFA [C11R] here?
Answer: 3.69

Question: Which protein stability index does the source give for CALNALTTTVDLVAAALRYLQIFA [C11D] here?
Answer: 2.75

Question: For CALNALTTTVTLVAAALRYLQIFA [C11T], which protein stability index is on record?
Answer: 2.74

Question: For CALNALTTTVQLVAAALRYLQIFA [C11Q], which protein stability index is on record?
Answer: 1.41

Question: With CALNALTTTVNLVAAALRYLQIFA [C11N] as the variant, how does the protein stability index read?
Answer: 1.91

Question: With CALNALTTTVFLVAAALRYLQIFA [C11F] as the variant, how does the protein stability index read?
Answer: 3.1

Question: With CALNALTTTVALVAAALRYLQIFA [C11A] as the variant, how does the protein stability index read?
Answer: 3.95

Question: With CALNALTTTVLLVAAALRYLQIFA [C11L] as the variant, how does the protein stability index read?
Answer: 3.18

Question: For CALNALTTTVSLVAAALRYLQIFA [C11S], which protein stability index is on record?
Answer: 2.18

Question: For CALNALTTTVYLVAAALRYLQIFA [C11Y], which protein stability index is on record?
Answer: 3.58

Question: With CALNALTTTVILVAAALRYLQIFA [C11I] as the variant, how does the protein stability index read?
Answer: 4.44

Question: Which protein stability index does the source give for CALNALTTTVMLVAAALRYLQIFA [C11M] here?
Answer: 2.97

Question: For CALNALTTTVPLVAAALRYLQIFA [C11P], which protein stability index is on record?
Answer: 2.3

Question: With CALNALTTTVKLVAAALRYLQIFA [C11K] as the variant, how does the protein stability index read?
Answer: 3.55

Question: With CALNALTTTVHLVAAALRYLQIFA [C11H] as the variant, how does the protein stability index read?
Answer: 1.63

Question: For CALNALTTTVCFVAAALRYLQIFA [L12F], which protein stability index is on record?
Answer: 2.56

Question: With CALNALTTTVCMVAAALRYLQIFA [L12M] as the variant, how does the protein stability index read?
Answer: 3.44
